Assay results reported in article PMC12543280.

B1: C. elegans APE-1 (sole ASPP homolog), endogenous, tagged with GFP and 3xflag [C. elegans] / C. elegans GSP-2 (PP1 homolog), endogenously HaloTagged [modified: JF646 dye on the HaloTag (single-molecule assay); JFX646 dye on the … (parent)
chain 1: MVTTSSGGGIGYPANNGVTQVSLIHSSDSVRTVSTAPIYRPTSSMASTMAHKSSTAPFISANQRMSKPPVRVVAQPPPPHPQALSQQYHQQNPMMMYSAPNTRPHVIPTMQVQPTMAAQIKRNNPVNAQFQNPSEMIADYGVKPQSVEMVQRVRAVRRQVADEETELRRLRELEHETAQLQNKNYGRERELNVQGSMLKEAQLELRNASMRAQSLNKHLEEMYRRRQTAAAAALVEQRKMQQHQILLARAANQVSTQEVIRPRASVEPFQVNNTQQQQPSPQMMKSEEFSEKRDLNGQTGSYDAIDGSGDHQKIPTEPSYLAPCKENQQKYSELSKMASTDPHSNHSSPSTSSQKAPTLITFSPPSFEQKINSSTMTRDSPFVERPTSFGDSLDESRLRSGKTDLVSLRSDSLKATKRRSWAASEGTSMSEAEMIHRLLDEQRRGRSHFIPQLPTSQEEPSAITSETYAEEVVNSESKQVATSSDSTNNLELPTEQMVLGSDTTTEEDASSCSTRSDDGQNLEMEVAIERRTVKGILRRPNEKMNKGRIEFDPLALLLDAALEGELDLVRSSASKLTDVSQANDEGITALHNAICAGHYEIVRFLIENDADVNAQDSDGWTPLHCAASCNNLPMVRQLVEGGGCVLASTLSDMETPVEKCEEDEDGYDGCLKYLSAAHNSTGSINTGKVYAAYGYEAAFEDELSFDAGDELTVIEKDKVDKNWWTCEKNNGEKGQVPRTYLALYPSLKYRKKLNFVMFDLPLESNNNVE
chain 2: MDVEKLNLDNIISRLLEVRGSKPGKNVQLTESEIKGLCQKSREIFLSQPILLELEAPLKICGDVHGQYYDLLRLFEYGGFPPESNYLFLGDYVDRGKQSLETICLLLAYKIKYPENFFLLRGNHECASINRIYGFYDECKRRYNIKLWKTFTDCFNCLPVAAIIDEKIFCCHGGLSPDLQSMEQIRRIMRPTDVPDQGLLCDLLWSDPDKDVTGWGENDRGVSFTFGPEVVAKFLHKHDLDLICRAHQVVEDGYEFFAKRQLVTLFSAPNYCGEFDNAGSMMTVDETLMCSFQILKPADKKKYPYGAGGVGSNRPVTPPRNAPAAQPKKGAKK

Experiments:
[1] = variants of: B1; experiment: single-molecule photobleaching analysis by TIRF microscopy; settings: with C. elegans GSP-2 (PP1 homolog)
[2] = variants of: B1; experiment: MudPIT analysis of 3xflag immunoprecipitations from whole-worm lysates; settings: with C. elegans GSP-2 (PP1 homolog) in whole-worm lysates of the MudPIT experiment [C. elegans (endogenous in whole worms)]; for response (% of total protein): parent: 10.8; for screen value: parent: 20

screen value ([1]; p = 0.008 vs APE-1, read off a plot) [%]	response (% of total protein) ([2]; bait recovered in same sample: 0.22 % of total protein (wild-type bait 0.54))	screen value [2]	screen value ([1]; p=0.531 vs APE-1, read off a plot) [%]	response (% of total protein) ([2]; bait recovered in same sample: 0.12 % of total protein (wild-type bait 0.54))	Variant
34	0.87	4	–	–	chain 1 N583K
–	–	7	37	0.87	chain 1 H591Y
